{
  "source": "paper PMC7331137",
  "key": {"[1]": {"biological_target": "IntC-CCre tagged with FLAG (UniProt P06956)"}, "[2]": {"biological_target": "IntC-CCre tagged with FLAG (UniProt P06956)", "remark": "listed apart in the source"}, "[3]": {"biological_target": "IntC-CCre tagged with FLAG (UniProt P06956)", "remark": "listed apart in the source"}},
  "data": [
    {"substance": "NCre-IntN tagged with HA (from UniProt P06956 1-59)", "values": [
      {"measurement": "TdTomato expression in neurons of the central amygdala after injection of FuG-E-NCre-IntN retrograde lentivirus into the dorsal striatum of Dlx6-CCre-IRES-eGFP::LoxP-stop-LoxP-TdTomato mice", "setting": "[1]", "value": 89.9, "unit": "%"},
      {"measurement": "DsRed fluorescence from a LoxP-stop-LoxP DsRed reporter in HEK293T cells cotransfected with both constructs (none with either alone)", "setting": "[2]", "value": 99, "unit": "%"},
      {"measurement": "TdTomato fluorescence in striatal neurons of Dlx6-CCre-IRES-eGFP reporter mice injected with NCre-IntN-mTagBFP2 lentivirus", "setting": "[3]", "value": 78.3, "unit": "%"}
    ]}
  ]
}
